B1: anti-ILT7 antibody #11 (mouse anti-human ILT7 monoclonal antibody produced by hybridoma #11, FERM BP-10704) (antibody, V domains shown)
VH: DVQLQESGPGLVKPSQSLSLTCTVTGYSITSDYAWNWIRQFPGNKLEWMGYISYSGSTSYNPSLKSRISITRDTSKNQFFLQLNSVTTEDTATYYCARSPPYYAMDYWGQGTSVTVSS
VL: DIVMTQSHKFMSTSVGDRVSITCKASQDVGTAVAWYQQKPGQSPKLLIYWASTRHTGVPDRFTGSGSGTDFTLTISNVQSEDLADYFCQQYSSYPLTFGAGTKLELK
notes: Mouse hybridoma antibody as tested; also called ILT7#11; anti-ILT7 antibody 411
B2: mouse anti-human ILT7 antibody #37 (monoclonal antibody produced by hybridoma #37) (antibody, V domains shown)
VH: DVQLQESGPGLVKPSQSLSLTCTVTGYSITSDYAWNWIRQFPGNKLEWMGYISYSGSTSYNPSLKSRISITRDTSKNQFFLQLNSVTTEDTATYYCARALPLPWFAYWGQGTLVTVSA
VL: DIVMTQSHKFMSTSVGDRVSITCKASQDVGTAVAWYQQKPGQSPKLLIYWASTRHTGVPDRFTGSGSGTDFTLTISNVQSEDLADYFCQQYSSYPYTFGGGTKLEIK
notes: Mouse hybridoma antibody; also called ILT7#37; ILT7437
B3: anti-ILT7 antibody #17 (mouse anti-human ILT7 monoclonal antibody produced by hybridoma #17, FERM BP-10705) (antibody, V domains shown)
VH: QVQLKQSGAELVRPGASVKLSCKTSGYIFTSYWIHWVKQRSGQGLEWIARIYPGTGSTYYNEKFKGKATLTADKSSSTAYMQLSSLKSEDSAVYFCARYPTYDWYFDVWGAGTTVTVSS
VL: DIVLTQSPATLSVTPGDRVSLSCRASQSISNYLHWYQQKSHESPRLLIKYASQSISGIPSRFSGSGSGTDFTLSINSVETEDFGMYFCQQSNSWPLTFGAGTKLELK
notes: Mouse hybridoma antibody as tested; also called ILT7#17

Experiments:
[1] = molecular target: T1, C-FLAG ILT7 (human ILT7 with FLAG tag at the C terminus, co-expressed with Myc-FcRγ) (human, UniProt P59901 17-499); experiment: flow cytometry of hybridoma supernatant on 293T cells transfected with C-FLAG ILT7 and Myc-FcRγ
T1 construct: also called pME18X-C-FLAG ILT7; pcDNA3.1-C-FLAG ILT7
T1 sequence (P59901 other isoform, or with tags, fused parts or gaps): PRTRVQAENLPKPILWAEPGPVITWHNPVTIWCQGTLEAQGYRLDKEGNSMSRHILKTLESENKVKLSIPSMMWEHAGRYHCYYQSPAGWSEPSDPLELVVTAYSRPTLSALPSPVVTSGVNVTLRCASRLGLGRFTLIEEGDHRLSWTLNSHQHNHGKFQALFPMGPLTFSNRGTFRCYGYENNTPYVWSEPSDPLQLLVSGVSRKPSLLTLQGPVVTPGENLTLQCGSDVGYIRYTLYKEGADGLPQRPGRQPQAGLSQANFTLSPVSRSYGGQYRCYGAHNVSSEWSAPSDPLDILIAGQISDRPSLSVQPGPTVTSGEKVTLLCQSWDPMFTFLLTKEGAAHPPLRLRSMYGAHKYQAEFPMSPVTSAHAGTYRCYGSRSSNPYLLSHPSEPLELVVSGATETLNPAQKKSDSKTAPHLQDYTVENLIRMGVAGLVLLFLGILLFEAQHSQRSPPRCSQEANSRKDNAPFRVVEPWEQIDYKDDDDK

[2] = molecular target: T2, C-FLAG ILT1 (human ILT1 with a FLAG tag at the C terminus, on 293T cells) (human, UniProt Q8N149 24-483); experiment: flow cytometry on 293T cells co-transfected with C-FLAG ILT1, ILT2, ILT3 and Myc-FcRγ
T2 construct: Cloned from a human tonsil cDNA library; also called pME18X-C-FLAGILT1; pME18X-C-FLAG ILT1
T2 sequence (Q8N149 other isoform, or with tags, fused parts or gaps limits assumed): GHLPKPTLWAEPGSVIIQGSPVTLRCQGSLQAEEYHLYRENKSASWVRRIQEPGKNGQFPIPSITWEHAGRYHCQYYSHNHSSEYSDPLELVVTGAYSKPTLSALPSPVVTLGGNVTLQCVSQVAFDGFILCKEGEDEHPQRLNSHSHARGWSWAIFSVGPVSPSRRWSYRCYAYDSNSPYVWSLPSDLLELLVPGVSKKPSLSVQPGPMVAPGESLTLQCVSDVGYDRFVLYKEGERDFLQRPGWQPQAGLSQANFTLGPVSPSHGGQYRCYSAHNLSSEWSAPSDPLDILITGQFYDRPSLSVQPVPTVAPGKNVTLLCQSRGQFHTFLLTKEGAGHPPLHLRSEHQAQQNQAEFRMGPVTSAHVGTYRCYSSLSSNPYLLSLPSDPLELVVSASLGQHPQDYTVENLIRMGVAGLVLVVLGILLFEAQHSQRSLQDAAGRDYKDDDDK

[3] = molecular target: ILT2 (on 293T cells, from pcDNA4.1-ILT2) (Homo sapiens (Human), UniProt Q8NHL6 24-650); experiment: as above
Chain of ILT2 (on 293T cells, from pcDNA4.1-ILT2) (Q8NHL6 other isoform, or with tags, fused parts or gaps limits assumed): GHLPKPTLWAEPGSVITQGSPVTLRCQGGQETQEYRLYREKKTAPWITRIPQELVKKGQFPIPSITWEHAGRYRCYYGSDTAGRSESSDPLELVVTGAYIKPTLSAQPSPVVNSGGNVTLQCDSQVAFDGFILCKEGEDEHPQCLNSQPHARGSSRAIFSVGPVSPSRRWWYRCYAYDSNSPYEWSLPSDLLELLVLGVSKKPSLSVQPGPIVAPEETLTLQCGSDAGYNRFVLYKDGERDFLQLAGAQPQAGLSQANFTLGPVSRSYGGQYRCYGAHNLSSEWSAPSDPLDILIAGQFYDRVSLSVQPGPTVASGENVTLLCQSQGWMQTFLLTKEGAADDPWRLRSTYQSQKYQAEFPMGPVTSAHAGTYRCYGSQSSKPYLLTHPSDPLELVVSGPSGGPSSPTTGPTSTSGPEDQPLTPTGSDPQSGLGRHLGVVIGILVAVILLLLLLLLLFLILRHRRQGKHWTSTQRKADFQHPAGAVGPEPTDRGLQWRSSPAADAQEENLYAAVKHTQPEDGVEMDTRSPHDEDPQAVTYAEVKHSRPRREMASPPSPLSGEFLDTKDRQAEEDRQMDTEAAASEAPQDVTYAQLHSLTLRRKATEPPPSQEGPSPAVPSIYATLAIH

[4] = molecular target: ILT3 (on 293T cells, from pcDNA4.1-ILT3) (Homo sapiens (Human), UniProt Q8NHJ6 22-448); experiment: as above
Chain of ILT3 (on 293T cells, from pcDNA4.1-ILT3) (Q8NHJ6 22-448 D223G/Q414R limits assumed): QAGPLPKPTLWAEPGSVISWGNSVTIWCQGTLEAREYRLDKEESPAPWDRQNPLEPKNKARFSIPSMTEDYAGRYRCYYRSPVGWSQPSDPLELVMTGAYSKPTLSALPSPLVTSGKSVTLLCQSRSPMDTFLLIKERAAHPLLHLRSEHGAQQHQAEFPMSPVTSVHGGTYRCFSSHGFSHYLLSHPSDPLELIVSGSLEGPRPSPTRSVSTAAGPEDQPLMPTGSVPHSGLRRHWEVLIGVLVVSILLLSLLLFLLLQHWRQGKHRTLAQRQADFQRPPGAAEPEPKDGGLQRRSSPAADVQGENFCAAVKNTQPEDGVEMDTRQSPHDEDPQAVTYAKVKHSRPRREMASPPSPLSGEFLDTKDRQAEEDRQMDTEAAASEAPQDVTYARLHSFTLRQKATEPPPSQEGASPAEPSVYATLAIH

[5] = molecular target: T3, human ILT7 expressed on human IPCs (interferon producing cells, BDCA-2 positive cells of peripheral blood … (human, UniProt P59901 17-499)); experiment: flow cytometry on human lymphocytes, with anti-CD123 antibody
T3 construct: Natural protein on primary human cells; GenBank NM-012276 is printed for the cDNA; also called immunoglobulin-like transcript-7; ILT7 molecules expressed on human IPCs
T3 sequence (P59901 other isoform, or with tags, fused parts or gaps): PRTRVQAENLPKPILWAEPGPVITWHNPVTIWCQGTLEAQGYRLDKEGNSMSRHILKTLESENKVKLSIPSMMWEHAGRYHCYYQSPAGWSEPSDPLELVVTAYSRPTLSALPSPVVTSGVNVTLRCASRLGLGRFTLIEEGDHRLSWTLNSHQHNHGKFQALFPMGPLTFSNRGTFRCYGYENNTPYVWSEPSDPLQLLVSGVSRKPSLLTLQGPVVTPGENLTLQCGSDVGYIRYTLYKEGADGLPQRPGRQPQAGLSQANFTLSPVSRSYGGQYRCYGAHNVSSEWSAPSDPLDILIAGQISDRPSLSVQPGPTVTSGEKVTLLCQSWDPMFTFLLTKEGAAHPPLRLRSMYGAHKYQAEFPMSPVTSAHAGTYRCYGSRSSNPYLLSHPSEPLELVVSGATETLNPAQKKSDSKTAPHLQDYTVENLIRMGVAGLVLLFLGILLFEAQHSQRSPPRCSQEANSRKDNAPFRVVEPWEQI

[6] = molecular target: T4, N-FLAG ILT7 (human ILT7 with FLAG tag attached to the N terminus, co-expressed with Myc-FcRγ on 293T cells) (human, UniProt P59901 17-499); experiment: flow cytometry on 293T cells co-expressing N-FLAG ILT7 and Myc-FcRγ
T4 construct: also called pME18X-N-FLAG ILT7; ILT7 molecules with a FLAG tag
T4 sequence (P59901 other isoform, or with tags, fused parts or gaps): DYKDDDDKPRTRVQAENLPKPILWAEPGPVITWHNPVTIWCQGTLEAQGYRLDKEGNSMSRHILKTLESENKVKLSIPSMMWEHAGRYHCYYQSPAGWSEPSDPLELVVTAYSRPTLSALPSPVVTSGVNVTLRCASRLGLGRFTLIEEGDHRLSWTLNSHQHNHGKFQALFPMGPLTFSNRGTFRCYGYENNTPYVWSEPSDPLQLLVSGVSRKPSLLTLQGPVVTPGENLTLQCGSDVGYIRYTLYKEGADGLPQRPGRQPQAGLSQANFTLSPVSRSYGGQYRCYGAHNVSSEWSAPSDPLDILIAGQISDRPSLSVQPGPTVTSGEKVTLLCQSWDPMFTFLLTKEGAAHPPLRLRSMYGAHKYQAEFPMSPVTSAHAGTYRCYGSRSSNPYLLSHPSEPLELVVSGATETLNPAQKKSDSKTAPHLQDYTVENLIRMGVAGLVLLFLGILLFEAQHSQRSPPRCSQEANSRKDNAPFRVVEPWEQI

[7] = molecular target: T1, C-FLAG ILT7 (human ILT7 with FLAG tag …); experiment: cell-based or functional assay
[8] = molecular target: T3, human ILT7 expressed on human IPCs …; experiment: flow cytometry as in B of Example 2 (human peripheral blood lymphocytes, BDCA-2 positive cells)
[9] = molecular target: T3, human ILT7 expressed on human IPCs …; experiment: flow cytometry, multiple staining of human peripheral blood lymphocytes (Lineage-1, CD123, BDCA-2)

| Binder | binding result [1] | binding result [2] | binding result [3] | binding result [4] | binding result [5] | binding result [6] | APC fluorescence intensity ratio (%), 37 °C against 4 °C (internalization on ILT7-CHO cells) [7] | FITC fluorescence intensity ratio (%), 37 °C against 4 °C (internalization on ILT7-CHO cells) [7] | binding result [8] | binding result [9] |
| --- | --- | --- | --- | --- | --- | --- | --- | --- | --- | --- |
| B1 | binds | no binding | no binding | no binding | binds | binds | – | – | – | – |
| B2 | – | – | – | – | – | – | 98.2% | 55.9% | binds | – |
| B3 | – | no binding | no binding | no binding | – | – | 95.4% | 44.5% | – | binds |
